Source: patent US20240100180A1 (SOTIO BIOTECH A S, published 2024)
Where a chain is given by its changes, count along the chain named.

B1: cCl1-1 (antibody, V domains shown)
VH: QIQLVQSGPELKKPGESVKISCKASGYTFTDYAMHWVKQAPGKGLKWMGWINTYTGKPTYADDFKGRFVFSLEASASTANLQISNLKNEDTATYFCARAVFYGYTMDAWGQGTSVTVSS
VL: DIQMTQSPASLSASLGETISIACRASEDIYSNLAWYQQKSGKSPQLLIFSVKRLQDGVPSRFSGSGSGTQYSLKISGMQPEDEGDYFCLQGSNFPLTFGSGTKLEIK
notes: Chimeric antibody from rat hybridoma, detected with anti-human IgG
B2: cCl1-2 (antibody, V domains shown)
VH: B1 VH with A24T, A40G, L45M, T53A, F70L, F101Y, T116I
VL: B1 VL with A22E, A25T, L33F, Y36F, F49Y, K52N, N93K
notes: as for B1
B3: cCl1-3 (antibody, V domains shown)
VH: B1 VH with H35Y, A40V, K46R
VL: B1 VL with A25T, S50A, V51I, N93K
notes: as for B1
B4: hCL1a-LC-G2-PNU (antibody, human IgG1, kappa)
heavy: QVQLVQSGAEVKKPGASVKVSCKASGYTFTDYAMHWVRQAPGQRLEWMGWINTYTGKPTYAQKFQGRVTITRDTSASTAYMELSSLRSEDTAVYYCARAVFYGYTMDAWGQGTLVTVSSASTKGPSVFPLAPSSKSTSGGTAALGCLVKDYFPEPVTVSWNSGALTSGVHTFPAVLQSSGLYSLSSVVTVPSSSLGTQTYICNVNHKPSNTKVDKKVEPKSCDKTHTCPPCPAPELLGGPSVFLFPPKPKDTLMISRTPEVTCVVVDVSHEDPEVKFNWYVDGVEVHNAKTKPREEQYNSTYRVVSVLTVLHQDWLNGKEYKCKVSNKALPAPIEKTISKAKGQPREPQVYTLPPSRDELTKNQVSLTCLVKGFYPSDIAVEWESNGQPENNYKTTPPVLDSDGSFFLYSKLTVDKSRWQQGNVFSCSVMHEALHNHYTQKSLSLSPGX
light: DIQMTQSPSSLSASVGDRVTITCRASEDIYSNLAWYQQKPGKAPKLLIFSVKRLQDGVPSRFSGSGSGTDFTLTISSLQPEDFATYYCLQGSNFPLTFGQGTKVEIKRTVAAPSVFIFPPSDEQLKSGTASVVCLLNNFYPREAKVQWKVDNALQSGNSQESVTEQDSKDSTYSLSSTLTLSKADYEKHKVYACEVTHQGLSSPVTKSFNRGECGGGGSLPQTGG
modifications: PNU-159682 linked through ethylenediamine to the C-terminal Gly of the GGGGSLPQTGG tag
B5: hCL1d-LC-G2-PNU (antibody, human IgG1, kappa)
heavy: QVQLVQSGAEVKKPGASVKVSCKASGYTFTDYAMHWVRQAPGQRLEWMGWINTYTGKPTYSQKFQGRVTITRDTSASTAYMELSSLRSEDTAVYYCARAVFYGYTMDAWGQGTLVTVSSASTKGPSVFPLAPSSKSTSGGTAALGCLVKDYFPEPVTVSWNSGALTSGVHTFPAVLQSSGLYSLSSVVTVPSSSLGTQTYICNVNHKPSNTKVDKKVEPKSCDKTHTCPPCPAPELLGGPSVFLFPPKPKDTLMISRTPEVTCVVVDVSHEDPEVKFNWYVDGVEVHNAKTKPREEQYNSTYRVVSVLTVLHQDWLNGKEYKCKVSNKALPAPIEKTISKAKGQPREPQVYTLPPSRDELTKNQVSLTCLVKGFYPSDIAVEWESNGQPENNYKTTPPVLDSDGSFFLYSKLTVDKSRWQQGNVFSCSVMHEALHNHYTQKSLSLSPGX
light: B4 light with A25T, L33F, F49Y, K52N, N93K
modifications: PNU-159682 linked through ethylenediamine to the C-terminal Gly of the GGGGSLPQTGG tag
B6: hCL1b-LC-G2-PNU (antibody, human IgG1, kappa)
heavy: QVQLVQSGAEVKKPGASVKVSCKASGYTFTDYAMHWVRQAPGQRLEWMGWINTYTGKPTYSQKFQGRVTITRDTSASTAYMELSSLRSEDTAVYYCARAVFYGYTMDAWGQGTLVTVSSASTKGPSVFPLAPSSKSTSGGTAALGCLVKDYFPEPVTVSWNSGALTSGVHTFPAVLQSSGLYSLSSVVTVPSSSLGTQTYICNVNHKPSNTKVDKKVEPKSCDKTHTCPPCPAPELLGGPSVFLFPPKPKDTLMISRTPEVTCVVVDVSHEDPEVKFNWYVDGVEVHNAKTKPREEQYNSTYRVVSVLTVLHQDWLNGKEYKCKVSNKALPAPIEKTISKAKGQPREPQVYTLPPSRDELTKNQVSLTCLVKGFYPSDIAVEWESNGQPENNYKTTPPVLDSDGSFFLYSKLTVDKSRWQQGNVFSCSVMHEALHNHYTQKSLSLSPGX
light: B4 light
modifications: PNU-159682 linked through ethylenediamine to the C-terminal Gly of the GGGGSLPQTGG tag
B7: hCL1e-LC-G2-PNU (antibody, human IgG1, kappa)
heavy: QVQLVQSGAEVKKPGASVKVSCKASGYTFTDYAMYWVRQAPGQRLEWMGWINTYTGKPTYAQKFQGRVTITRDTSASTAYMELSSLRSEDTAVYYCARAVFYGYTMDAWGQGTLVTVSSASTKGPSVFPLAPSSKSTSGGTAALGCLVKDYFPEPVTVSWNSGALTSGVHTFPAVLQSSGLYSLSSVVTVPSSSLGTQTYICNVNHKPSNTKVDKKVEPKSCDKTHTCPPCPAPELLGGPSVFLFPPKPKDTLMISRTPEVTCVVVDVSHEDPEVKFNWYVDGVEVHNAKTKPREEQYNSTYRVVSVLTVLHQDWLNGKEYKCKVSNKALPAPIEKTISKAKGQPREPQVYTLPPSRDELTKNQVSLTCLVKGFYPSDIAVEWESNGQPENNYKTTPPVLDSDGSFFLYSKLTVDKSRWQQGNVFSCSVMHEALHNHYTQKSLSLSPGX
light: B4 light
modifications: PNU-159682 linked through ethylenediamine to the C-terminal Gly of the GGGGSLPQTGG tag
B8: hCL1c-LC-G2-PNU (antibody, human IgG1, kappa)
heavy: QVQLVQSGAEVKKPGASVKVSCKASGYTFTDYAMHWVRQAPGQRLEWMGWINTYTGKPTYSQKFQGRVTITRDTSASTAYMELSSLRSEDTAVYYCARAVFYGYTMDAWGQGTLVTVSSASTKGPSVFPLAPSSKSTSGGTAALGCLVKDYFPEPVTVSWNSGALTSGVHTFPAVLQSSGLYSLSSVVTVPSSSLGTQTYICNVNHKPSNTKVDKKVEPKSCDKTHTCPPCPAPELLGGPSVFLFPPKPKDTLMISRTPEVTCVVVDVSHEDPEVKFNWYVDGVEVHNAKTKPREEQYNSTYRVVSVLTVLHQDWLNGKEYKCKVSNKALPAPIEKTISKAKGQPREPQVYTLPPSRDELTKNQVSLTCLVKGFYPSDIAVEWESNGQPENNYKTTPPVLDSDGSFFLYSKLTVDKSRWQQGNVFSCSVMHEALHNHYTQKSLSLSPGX
light: B4 light with A25T, S50A, V51I, N93K
modifications: PNU-159682 linked through ethylenediamine to the C-terminal Gly of the GGGGSLPQTGG tag
B9: hCL1h-LC-G2-PNU (antibody, human IgG1, kappa)
heavy: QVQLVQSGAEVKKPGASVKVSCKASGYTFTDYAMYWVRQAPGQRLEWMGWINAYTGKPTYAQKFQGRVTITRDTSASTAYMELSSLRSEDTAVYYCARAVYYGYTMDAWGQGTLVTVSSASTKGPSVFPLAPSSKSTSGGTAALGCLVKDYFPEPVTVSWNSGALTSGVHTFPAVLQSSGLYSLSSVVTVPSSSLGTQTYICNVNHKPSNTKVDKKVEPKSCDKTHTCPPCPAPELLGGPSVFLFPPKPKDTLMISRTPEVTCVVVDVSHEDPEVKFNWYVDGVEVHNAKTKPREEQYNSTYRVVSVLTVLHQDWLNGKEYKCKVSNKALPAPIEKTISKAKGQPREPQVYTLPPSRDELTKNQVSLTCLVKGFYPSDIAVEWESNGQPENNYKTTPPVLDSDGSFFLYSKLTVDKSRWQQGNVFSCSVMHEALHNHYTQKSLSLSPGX
light: B4 light with F49Y
modifications: PNU-159682 linked through ethylenediamine to the C-terminal Gly of the GGGGSLPQTGG tag
B10: hCL1j-LC-G2-PNU (antibody, human IgG1, kappa)
heavy: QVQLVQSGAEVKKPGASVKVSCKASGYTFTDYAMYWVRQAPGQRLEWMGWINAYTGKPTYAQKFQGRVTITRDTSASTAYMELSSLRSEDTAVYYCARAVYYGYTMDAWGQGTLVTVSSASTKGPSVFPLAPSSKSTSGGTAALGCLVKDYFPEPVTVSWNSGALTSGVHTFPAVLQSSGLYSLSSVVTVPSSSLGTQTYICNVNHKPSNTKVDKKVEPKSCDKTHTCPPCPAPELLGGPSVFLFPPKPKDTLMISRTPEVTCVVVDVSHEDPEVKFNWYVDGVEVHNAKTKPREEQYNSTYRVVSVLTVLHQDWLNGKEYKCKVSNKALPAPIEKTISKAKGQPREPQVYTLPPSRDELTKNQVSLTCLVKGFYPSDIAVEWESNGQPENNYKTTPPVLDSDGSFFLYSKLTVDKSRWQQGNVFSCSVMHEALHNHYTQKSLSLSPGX
light: B4 light with A25T, S50A, V51I, N93K
modifications: PNU-159682 linked through ethylenediamine to the C-terminal Gly of the GGGGSLPQTGG tag
B11: hCL1g-LC-G2-PNU (antibody, human IgG1, kappa)
heavy: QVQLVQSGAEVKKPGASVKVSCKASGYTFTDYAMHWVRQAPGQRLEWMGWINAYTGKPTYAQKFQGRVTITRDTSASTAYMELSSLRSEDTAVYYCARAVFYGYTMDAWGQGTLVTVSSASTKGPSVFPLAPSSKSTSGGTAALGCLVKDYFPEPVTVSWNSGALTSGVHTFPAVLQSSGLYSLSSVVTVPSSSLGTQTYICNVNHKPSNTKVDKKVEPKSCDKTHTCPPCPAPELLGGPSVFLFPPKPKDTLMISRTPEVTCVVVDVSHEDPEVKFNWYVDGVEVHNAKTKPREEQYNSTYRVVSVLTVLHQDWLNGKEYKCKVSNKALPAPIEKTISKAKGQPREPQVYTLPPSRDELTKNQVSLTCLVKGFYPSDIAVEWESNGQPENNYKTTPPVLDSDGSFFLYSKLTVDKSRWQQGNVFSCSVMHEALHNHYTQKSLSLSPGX
light: B4 light with A25T, L33F, F49Y, K52N, N93K
modifications: PNU-159682 linked through ethylenediamine to the C-terminal Gly of the GGGGSLPQTGG tag
B12: hCL1f-LC-G2-PNU (antibody, human IgG1, kappa)
heavy: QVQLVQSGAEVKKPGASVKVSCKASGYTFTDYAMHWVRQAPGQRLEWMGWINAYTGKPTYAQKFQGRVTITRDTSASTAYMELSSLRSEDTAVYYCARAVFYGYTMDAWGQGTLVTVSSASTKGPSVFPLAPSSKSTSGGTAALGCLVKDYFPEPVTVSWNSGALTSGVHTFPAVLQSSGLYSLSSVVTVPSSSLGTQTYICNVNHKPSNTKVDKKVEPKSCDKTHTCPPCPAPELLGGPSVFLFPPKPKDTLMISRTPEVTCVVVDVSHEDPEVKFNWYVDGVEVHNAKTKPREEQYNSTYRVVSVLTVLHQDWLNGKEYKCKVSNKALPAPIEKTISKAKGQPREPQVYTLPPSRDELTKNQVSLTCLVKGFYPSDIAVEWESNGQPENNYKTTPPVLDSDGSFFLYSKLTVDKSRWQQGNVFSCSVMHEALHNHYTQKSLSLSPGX
light: B4 light with F49Y
modifications: PNU-159682 linked through ethylenediamine to the C-terminal Gly of the GGGGSLPQTGG tag
B13: hCL1i-LC-G2-PNU (antibody, human IgG1, kappa)
heavy: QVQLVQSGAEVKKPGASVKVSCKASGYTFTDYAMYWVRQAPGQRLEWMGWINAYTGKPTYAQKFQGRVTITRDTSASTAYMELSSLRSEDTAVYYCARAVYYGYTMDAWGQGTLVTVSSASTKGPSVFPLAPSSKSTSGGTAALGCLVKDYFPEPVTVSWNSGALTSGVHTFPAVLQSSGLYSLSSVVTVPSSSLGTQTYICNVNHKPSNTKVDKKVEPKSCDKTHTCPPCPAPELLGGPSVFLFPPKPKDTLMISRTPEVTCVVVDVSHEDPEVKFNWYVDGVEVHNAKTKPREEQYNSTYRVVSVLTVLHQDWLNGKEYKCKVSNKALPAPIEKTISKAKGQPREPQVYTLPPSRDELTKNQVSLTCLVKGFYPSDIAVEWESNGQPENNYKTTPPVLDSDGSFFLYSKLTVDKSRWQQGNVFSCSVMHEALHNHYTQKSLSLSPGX
light: B4 light
modifications: PNU-159682 linked through ethylenediamine to the C-terminal Gly of the GGGGSLPQTGG tag

Target: T1, human CLDN18.1 (Claudin 18.1) expressed on cells (human, UniProt P56856 1-261)
T1 construct: whole, on cells; Isoform 1 (lung isoform) of CLDN18; also called huCLDN18.1; hCLDN18.1
Experiment: flow cytometry, L11 cells overexpressing huCLDN18.1 (FIG. 4)
Procedure: The cells were stained on ice for 30 min using the antibodies at 2 μg/ml and, upon washing in PBS/2% FCS, stained with anti-human IgG (Fc gamma-specific) PE goat antibody (eBioscience) as secondary antibody for 30 min on ice.

T1 sequence (P56856 whole entry, canonical isoform): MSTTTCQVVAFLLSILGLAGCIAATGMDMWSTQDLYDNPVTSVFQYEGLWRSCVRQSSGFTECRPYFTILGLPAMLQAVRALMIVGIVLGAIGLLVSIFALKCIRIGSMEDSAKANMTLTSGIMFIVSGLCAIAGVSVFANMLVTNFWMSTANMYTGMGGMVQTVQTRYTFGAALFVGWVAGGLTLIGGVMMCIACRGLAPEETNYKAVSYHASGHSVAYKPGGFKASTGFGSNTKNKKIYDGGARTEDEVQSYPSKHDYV

Binder	binding result
B1	no binding (tested: 2 µg/ml)
B2	no binding (tested: 2 µg/ml)
B3	no binding (tested: 2 µg/ml)

Target: T2, human CLDN18.2 (Claudin 18.2) expressed on cells (human)
T2 construct: also called huCLDN18.2; hCLDN18.2
Experiment: % positive tumor cells divided by % positive healthy stomach cells, flow cytometry, mouse 2
Procedure: (§1) Two Balb/c mice were implanted subcutaneously with 1×10⁶ A549 cells expressing CLDN18.2 in 100 μl of 50% Matrigel and tumors growth was monitored over a few weeks until the tumor reached the desired size between 150-450 mm³. Healthy stomach tissue and tumor tissue was collected for FC analysis. The collected tissues were cut into small pieces and digested with the Miltenyi tumor dissociation kit (MACS Miltenyi Biotec, Germany). Tissue pieces were incubated with dissociation buffer (prepared according to the manufacturer instruction) in 6 well plates for 30 min in 37° C. under permanent gentle rocking motion. Samples were resuspended and strained through a 70 μm cell strainer (Corning, USA) followed by a wash with 20 ml FC buffer (PBS+2% FBS). Cell suspensions were centrifuged (5 min at 400 g for 4° C.) and the supernatants were discarded. If needed, cell suspensions were passed through a strainer and centrifuged repeatedly and pellets resuspended in 5 ml of red blood cell lysis buffer (Biolegend, USA), incubated on ice for 4 min. After incubation, 25 ml of PBS was added, and the suspensions were centrifuged again (5 min at 400 g for 4° C.). Pellets were resuspended in FC buffer (0.5-3 ml based on pellets). Equal number of cells were transferred into 96 well plates and further processed for FC analysis. […]

Binder	Ratio tumor/stomach
B1	50

Target: T2, human CLDN18.2 (Claudin 18.2) expressed …
Experiment: % positive tumor cells divided by % positive healthy stomach cells, flow cytometry, average
Procedure: as §1

Binder	Ratio tumor/stomach
B1	74.3

Target: T2, human CLDN18.2 (Claudin 18.2) expressed …
Experiment: % positive tumor cells divided by % positive healthy stomach cells, flow cytometry, mouse 1
Procedure: as §1

Binder	Ratio tumor/stomach
B1	92.5

Target: T2, human CLDN18.2 (Claudin 18.2) expressed …
Experiment: cell-based or functional assay

Binder	EC50 of in-vitro cytotoxicity, A549-CLDN18.2 cells (head of c2) [ng/mL]
B4	4.8
B5	11.6
B6	6.4
B7	4.3
B8	30
B9	3.3
B10	5.3
B11	70.7
B12	14
B13	3.8
